This note sets out measurements from publication PMC10184537 (ACS Nano, 2023).

This assay concerns the target murine urokinase-type plasminogen activator (murine, UniProt P06869). Put plainly: […].

murine urokinase-type plasminogen activator, sequence (P06869 21-433): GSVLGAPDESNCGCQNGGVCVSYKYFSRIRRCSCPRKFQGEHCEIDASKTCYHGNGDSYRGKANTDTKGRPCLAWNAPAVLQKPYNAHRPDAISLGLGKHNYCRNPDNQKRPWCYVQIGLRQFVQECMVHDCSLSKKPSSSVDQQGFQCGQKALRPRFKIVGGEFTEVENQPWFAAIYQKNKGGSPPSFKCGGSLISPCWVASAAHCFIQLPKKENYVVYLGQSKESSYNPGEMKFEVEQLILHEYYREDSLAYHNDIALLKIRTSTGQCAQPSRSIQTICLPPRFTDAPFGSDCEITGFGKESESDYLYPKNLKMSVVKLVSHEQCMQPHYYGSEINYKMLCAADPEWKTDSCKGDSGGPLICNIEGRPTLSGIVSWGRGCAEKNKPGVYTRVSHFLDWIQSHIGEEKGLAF

B1: nb22 nanobody (VHH)
VHH: QVQLQESGGGLVQAGGSLRLSCAASGRTFSSYVMGWFRQAPGKEREFVAAISWSGGSTNYADSVKGRFTISRDNAKNTVYLQMNSLKPEDTAVYYCAADLASSRDVSSWYWGQGTQVTVSS
Regarding B1, the binding result is “binds”.
